Results reported in paper PMC5924911.

What was measured:
[1] = target: NaV1.4 p.R222G channel (UniProt P35499)
[2] = target: NaV1.4 p.R222W channel (UniProt P35499)
[3] = target: VSD-I of human NaV1.4 (residues L114–S246) (human) (UniProt P35499); test: NMR titration

Hm-3 toxin from the crab spider Heriaeus melloteei (peptide)
percent of guanidinium-enhanced IGP suppressed by 10 μM Hm-3 at −80 mV, oocytes [1]: 64%
percent of guanidinium-enhanced IGP suppressed by 10 μM Hm-3 at −80 mV, oocytes [2]: 67%
Kd [3]: 6.2 µM
